Fewer inactive variants are shown than the library holds.
B1: TPR 5TU (parent)
chain: GGAUCUUCUCGAUCUAACAAAAAAGACAAAUCUGCCACAAAGCUUGAGAGCAUCUUCGGAUGCAGAGGCGGCAGCCUUCGGUGGCGCGAUAGCGCCAACGUUCUCAACUAUGACACGCAAAACGCGUGCUCCGUUGAAUGGAGUUUAUCAUG

Variants of: B1
Test: polymerase ribozyme fitness, log enrichment relative to wild type (log ratio); higher = more active; in vitro selection for triplet polymerase activity
Procedure, shortened: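 Fitness is a logarithmic measure of how a genotype enriched relative to the wild type, with replicate averages weighted by inverse variance. The logarithm uses base 2, and enrichment came from Illumina sequencing of input and output libraries. Those libraries were PCR-built, transcribed mutants of each subunit of a heterodimeric triplet polymerase ribozyme, passed through one triplicate in vitro selection round that included frozen incubation at −7 °C, gel excision of extended constructs and streptavidin-bead capture. Genotypes were kept only if they had ≥10 input reads and ≥1 read per output.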

Row | Variant | polymerase ribozyme fitness (log ratio)
1 | GGAUCUUCUCGAUCUAACAAAAAAGACUAAUCUGCCACAAAGCUUGAGAGCAUCUUCGGAUGCAGUGGCGGCGGCCUUCGGUGGCUCGAUAGCGCCAACGUUGUCAACUAUGACAUGCAAAACGCGUGCUCCGUUGAAUGGAGUUUAUCAUU [A28U A66U A73G G86U C103G C116U G152U] | ≤ -4.2
2 | GGAUCUUCUCGAUCUAACAAAAAAGACUAAUCUGCCACAAAGCUUGAGCGCAUCUUCGGAUGCAGAGGCGGCAGCCUUCGGUGGCGCGAUAGCGCCAACGUUGUCAACUAUGACACGCAAAACGCGUGCUCCGUUGAAUGGAGUUUAUCAUG [A28U A49C C103G] | ≤ -4.2
3 | GGAUCUUCUCGAUCUAACAAAAAAGACUAAUCUGCCACAAAGCUUGAGAGCCUCUUCGGAUGCAGAGGCGGCAGCCUUCGGUGGCGCGAUAGCGCCUACGUUCUCAACUAUGACACGCAAAACGCGUGCUCCGUUGUACGGAGUUUAUCAUG [A28U A52C A97U A137U U139C] | ≤ -4.2
4 | GGAUCUUCUCGAUCUAACAAAAAAGACUCAUCUGCCACAAAGCUAGAGAGCAUCUUCCGAUGCAGAGGCGGCAGCCUUCGGUGGUGCGAUAGCGCCAACGUUCUUGACUAUGACACGCAAAACGCGUGCUCCGUUGAAUGGAGUUUAUCAUG [A28U A29C U45A G58C C85U C105U A106G] | ≤ -4.2
5 | GGAUCUUCUCGAUCUAACAAAAAAGACUAAUCUGCCCCAAAGCUUGAGAGCAUCUUCGGAUGCAGAGGCGGCAGCCUUCGGUGGCGAGAUAGCGCCAACGUUCUCAACUAUGACACACAAAACGCGUGCUCCGUUGAAUCGAGUUUAUCAUG [A28U A37C C87A G117A G140C] | ≤ -4.2
6 | GGAUCUUCUCGAUCUAACAAAAAAGACUAAUCUGCCACAACGCUUGAGAGCAUCUUCGGAUGCAGAGGCGGCAGUCUUCGAUGGCGCGAUAGCGCCAACGUUGUCAACUAUGACACGCAAAACGCGUGCUCCGUUGAAUGGAGUUUAUGAUG [A28U A41C C75U G81A C103G C149G] | ≤ -4.2
7 | GGAUCUUCUCGAUCUAACAAAAAAGACUAAUCUGCCACAAAGCUUGAGAGCAUCUUCGGAUGCGGUGGCGGCUGCCUUCGUUGGCGCGAUAGCGUCAACGUUCUCAACUAUGAUACGCAAAACGCGUGCUCCGUUGAAUGGAGUUUAUAAUG [A28U A64G A66U A73U G81U C95U C114U C149A] | ≤ -4.2
8 | GGAUCUUCUCGAUCUAACAAAAAAGACUAAUCUGCCACAAAGCUUGAGAGCAUCUUCGGAUGCAGAGGCGGCAGCCUUCGGUGGCGCGAUAGCGCCAACGUUCUCAACUAUGACACGCAAAACGCGUGCUCCGUUGAAUGGAGUUUAUCAUG [A28U] | -3.38
9 | GGAUCUUCUCGAUCUAACAAAAAAGACUAAUCUGCCCCAAAGCUUGAGAGCAUCUUCGGAUGCAGAGGCGGCAGCCUUUGGUGGCGUGAUAGCGCCAACGUUCUCAACUAUGACACGCAAAACGCGUGCUCCGUUGAAUGGAGUUUAUCAUG [A28U A37C C79U C87U] | -3.89
10 | GGAUCUUCUCGAUCUAACAAAAAAGACUAAUCUGCCUCAAAGCUUGAGAGCAUCUUCGGAUGCAGAGGCGGCGGCCUUCGGUGGCGCGAUAUCGCCAACGUUCUCGACUAUGACACGGAAAACGCGUGCUCCGUUGAAUGGAGUUUAUCAUG [A28U A37U A73G G92U A106G C118G] | ≤ -4.2
11 | GGAUCUUCUCGAUCUAACAAAAAAGACUAAUCUGCCACAAAGCUUGAGAGCAUCUUCGGCUGCAGAGGCGGCAGCCUUCGGUGGCGAGAUAGCGCUAACGUUCUCAACUAUGACACGCAAAACGCGUGCUCCGUUGAAUGGAGUUUAUCAUG [A28U A60C C87A C96U] | ≤ -4.2
12 | GGAUCUUCUCGAUCUAACAAAAAAGACUAUUCUGCCACUAAGCUUGAGACCAUCUUGGGAUGCAGAGGCGGCAGGCUUCGGACGCGCGAUAGCGCCAACGUUCUCAACUAUGACACGCAAAACUCGUGCUCCGUUGAAUGGAGUUUAUCAUG [A28U A30U A39U G50C C57G C75G U82A G83C G124U] | ≤ -4.2
13 | GGAUCUUCUCGAUCUAACAAAAAAGACUACUCUGCCACAAAGCUUGAGAGCAUCUUCGGAUGCAGAGGCGGCAGCCUUAGGUGGCGCGAUAGCGCCAACGUUCUCAACUAUGACACGCAAAACGCGUGCUCCGUUGAAUGGAGUUUAUCAUG [A28U A30C C79A] | ≤ -4.2
14 | GGAUCUUCUCGAUCUAACAAAAAAGACUAAUCUGCCACACAGCUUGAGAGCAUCUUCGGAUGCAGAGGCGGCAGGCUUCGGUGGCGAGAUAGCGUCAACGUUCUGAACUAUGACACGCAAUACGCGUGCUCCGUUGAAUGGAGUUUAUCAUG [A28U A40C C75G C87A C95U C105G A121U] | ≤ -4.2
15 | GGAUCUUCUCGAUCUAACAAAAAAGACUAAUCUGCCACAAAGCUUGCGAGCAUCUUCGGAUGCAGAGGCGGCACCCUUCGGUGGCGCGAUAGCGUCAACGUUCUCAACUAUGACACGCAAAACGCGUGCUCCGUUGAAUGGCGUUUAUAAUG [A28U A47C G74C C95U A142C C149A] | ≤ -4.2
16 | GGAUCUUCUCGAUCUAACAAAAAAGACUAAUCUGCCACAAAGCUUGAGAGCGUCUUCGGAUGCAGAGGCGGCAGCCUUCGGUGGUGCAAUAGCGGCAACGUUCUCAACGAUGACACGCAAAACGCGUGCUCCGUUGAAUGGAGUUUAUCAUG [A28U A52G C85U G88A C95G U109G] | ≤ -4.2
17 | GGAUCUUCUCGAUCUAACAAAAAAGACUACUCUGCCACAAAGCUUGAGAGCAGCUUCGGAUGCUGAGGCGGCAGCCUUCGGUGGCGCGAUAGCGCCAACGUUCUCAACUAUGACACGUAAAACGCGUGCUCCGUUGAAUGGAGUUUAUCAUG [A28U A30C U53G A64U C118U] | ≤ -4.2
18 | GGAUCUUCUCGAUCUAACAAAAAAGACUAAUCUGCCACAAUGCUUGAGAGCAUCUUCGGAUGCAGAGGCGGCAGCCUUGGGUGGCACGAUAGCGCCAACGUUCUCAACUAUGACACGCAAAACGCGUGCUCCGUUAAAUGGAGUUUAUCAUA [A28U A41U C79G G86A G136A G152A] | ≤ -4.2
19 | GGAUCUUCUCGAUCUAACAAAAAAGACUAAUCUGCCACGAAGCUUGAGAGCAUCUUCGGAUGCAGGGGCGGCAGCAUUCGCUGGCGCGAUAGCGCCAACGUUCUCAACUAUGACACGCAAAACGCGUGCUCCGUUGAAUGGAGUUUAUCAUG [A28U A39G A66G C76A G81C] | ≤ -4.2

From the RNAGym collection of RNA variant scans (doi:10.1073/pnas.2313332121)
